Experimental data taken from the nanobody polyreactivity screen of Harvey et al. (2022).

Experiment: yeast display, Sf9 membrane polyspecificity reagent, FACS + sequencing; frameworks hold sequencing errors
How it was run: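 Nanobodies from a synthetic yeast display library (Saccharomyces cerevisiae BJ5465), induced 36–48 hours with galactose, were stained 1 hour at 4 °C with 10% biotinylated, detergent-solubilized Sf9 membrane reagent, enriched on streptavidin microbeads, then FACS-sorted. Anti-HA (expression) and streptavidin (reagent binding) fluorescence set low and high (top ~1%) gates. Polyreactivity labels come from the gate of origin. Genes were colony-PCR amplified, MiSeq 2 × 250 sequenced and filtered by CDR length.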

Row | Sequence | polyreactivity (PSR sort gate)
1 | QVQLVESGGGLVQAGGSLRLSCAASGRIFDSNAMGWYRQAPGKERELVAYITSGGRTYYADSVKGRFTISRDNAKNTVYLQMNSLKAEDTAVYYCAVRSYKRGPLDYWGQGTQVTVSS | high polyreactivity
2 | QVQLVESGGGLVQAGGSLRLSCAASGRIFDTNAMGWYRQAPGKERAFVAAISRSGGSTYYADSVKGRFTISRDNAKNTVYLQMNSLKPEDTAVYYCAARWYVLQPLGYDATHRKYYWGQGTQVTVSS | high polyreactivity
3 | QVQLVESGGGLVQAGGSLRLSCAASGRIFDTNAMGWYRQAPGKERELVAAISSGDTTNYADSVKGRFTISRDNAKNTVYLQMNSLKPEDTAVYYCAVYAISFGWSGWTYEDSWGQGTQVTVSS | low polyreactivity
4 | QVQLVESGGGLVQAGGSLRLSCAASGRIFDTYVMGWYRQAPGKERELVAAISGSGGSTYYADSVKGRFTISRDIAKNTVYLQMNSLKPEDTAVYYCAAARRYYAYRYDYWGQGTQVSVSS | high polyreactivity
5 | QVQLVESGGGLVQAGGSLRLSCAASGRIFDVNAMGWYRQAPGKERELVAAIRSGGRTNYADSVNGRFTISRDNAKNTVYLQMNSLKPEDTAVYYCAAVVWSSLDDYWGQGTQVTVSS | high polyreactivity
6 | QVQLVESGGGLVQAGGSLRLSCAASGRIFDVNVMGWYRQAPGKERELVADISSGGGTDYADSVKGRFTISRDNAKNTVYLQMNILKQEDTAVYSCDWGQGTQVTVSS | low polyreactivity
7 | QVQLVESGGGLVQAGGSLRLSCAASGRIFDVYAMGWYRQAPGKERELVAAITWSGGRTYYADSVKGRFTISRDNAKNTVYLQLNSLKPEDTAVYYCAAEKPYVRGYLWTYDYWGQGTQVTVSS | low polyreactivity
8 | QVQLVESGGGLVQAGGSLRLSCAASGRIFDWNAVGWYRQAPGKERELVAAITWTGGTTYYADSVKGRFTISRDNAKNTVYLQMNSLKPEDTAVYYCAKRGGNQFAYRARSFDYWGQGTQVTLSS | low polyreactivity
9 | QVQLVESGGGLVQAGGSLRLSCAASGRIFDWNTMGWYRQAPGKERELVAAISYDGSTYYADSVKGRFTISRDNAKNTVYLQMNSLKPEDTAVYYCNAYPLTQYFAQGYDYWGQGTQVTVSS | low polyreactivity
10 | QVQLVESGGGLVQAGGSLRLSCAASGRIFDWNVMGWYRQAPGKERELVAVINDSTGTTYYADSVKGRFTISRDNAKNTVYLQMNSLKPEDTAVYYCSADWSVFTYFYGYDYWGQGTQVTVSS | low polyreactivity
11 | QVQLVESGGGLVQAGGSLRLSCAASGRIFDWYAMGWYRQAPGKERELVAAISTSGANTYYADSVKGRFTISRDNAKNTVYLQMNSLKPEDTAVYYCATDPYQPYEGDYWGQGSQVTVSS | low polyreactivity
12 | QVQLVESGGGLVQAGGSLRLSCAASGRIFDYNTLGWYRQAPGKERELVAAISASGTRTYYADSVKGRFTISRDNAKNTVYLQMNSLKPEDTAVYYCAAVYSYIASYLRYDYWGQGTQVTVSS | high polyreactivity
13 | QVQLVESGGGLVQAGGSLRLSCAASGRIFDYYAMGWYRQAPGKERELVAAISLIGASTYYADSVKGRFTISRDNAKNTVYLQMNSLKPEDTAVYYCAAEFYLRRFKVTKRYWFDYWGQGTQVTVSS | low polyreactivity
14 | QVQLVESGGGLVQAGGSLRLSCAASGRIFDYYDMGWYRQAPVKERELVAAITSSGTSTYYADSVKGRFTISRDNAKNTVYLQMNSLKPEDTAVYYCNARSIRPWGENGFWGQGTQVTVSS | high polyreactivity
15 | QVQLVESGGGLVQAGGSLRLSCAASGRIFDYYPKGWYRQAPGKERELVAAISVRGGSTYYADSVKGRFTISRDNAKNTVYLQMNSLKPEDTAVYYCAARSWPHRTYYYWGQGTQVTVSS | high polyreactivity
16 | QVQLVESGGGLVQAGGSLRLSCAASGRIFEDYAMGWYRQAPGKERELVARISSGDSTNYADSVKGRFTISRDNAKNTVYLQMNSLKPEDTAVYYCNADRGDLYELRGSGYLDGYWGQGTQVTVSS | low polyreactivity
17 | QVQLVESGGGLVQAGGSLRLSCAASGRIFEFNAMGRYIQAPGKERELVARISYSGGSTYYADSLKGRFTISRDNAKNTVYLQMNSLKPEDTAVYYCAAKPSRYFYNAWGYRQVYQYDYWGQGTQVTVSS | high polyreactivity
